Assay: yeast display, Sf9 membrane polyspecificity reagent, FACS + sequencing; frameworks hold sequencing errors
Method in brief: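 A synthetic nanobody library was expressed on Saccharomyces cerevisiae BJ5465 by galactose induction for 36–48 hours. The library was stained for 1 hour at 4 °C with 10% biotinylated, detergent-solubilized Sf9 membrane reagent and enriched with streptavidin microbeads before FACS. Low and high (top ~1%) gates were set on anti-HA fluorescence for expression and streptavidin fluorescence for reagent binding, and each polyreactivity label reflects the gate of origin.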

| Sequence | polyreactivity (PSR sort gate) |
| --- | --- |
| QVQLVESGGGLVQAGGSLRLSCAASGGIFKRNTMGWYRQAPGKERELGAGISWTGGRTYYADSVKGRFTISRDTAKNTVYLQMNSLKPEDTAVYYCAAKPLQGVRRVEYWGQGTQVTVSS | high polyreactivity |
| QVQLVESGGGLVQAGGSLRLSCAASGGIFKSNTMGWYRQAPGKERELFAAITSGGSTNYADSVKGRFTISRDNAKNTVYLQMNSLKPEDTAVYYCNTDDRYYTPSRAVFQYDYWGQGTQVTVSS | low polyreactivity |
| QVQLVESGGGLVQAGGSLRLSCAASGGIFLSNAMGWYRQAPGKERELVAAISRSGGSTYYADSVKWRFTISRDNAKNTVYLQMYSLKPEDTAVYYCAARWTRNYGMNYWGQGTQVTVSS | high polyreactivity |
| QVQLVESGGGLVQAGGSLRLSCAASGGIFLVNDMGWYRQAPGKERELFAAITSGGGTYYADSVKGRFTISRDNAKNTVYLQMNSLKPEDTAVYYCARDTYRQIVSNESYGYWGQGTQVTVSS | low polyreactivity |
| QVQLVESGGGLVQAGGSLRLSCAASGGIFNYYAMGWYRQAPGKERELVAAISASGGSTYYADSVKGRFTISRDNAKNTVYLQMNSLKQEDTAVYYCAAKYPQKTPVNSYGNSFYYWGQGTQVTVSS | low polyreactivity |
| QVQLVESGGGLVQAGGSLRLSCAASGGIFPSYAMGWYRQAPGKERELVAAITRGASTYADSVKGRFTISRDNAKNTVYLQMNSLKPEDTAVYYCAADTKRRSIRYDYWGQGTQVTVSS | high polyreactivity |
| QVQLVESGGGLVQAGGSLRLSCAASGGIFPYYAMGLYRQAPGKERELVADISSGGSTYYEDSVKGRFTISRDNAKNTVYLQMNSLKPEDTAVYYCAAEDTLAGSVARFGEYDYWGQGTQVTVSS | low polyreactivity |
| QVQLVESGGGLVQAGGSLRLSCAASGGIFPYYAMGWYSQAPGKEMELVAGISQNDGRTYYADSVKGRFTISRDNAKNTVYLQMNSLKPEDTAVYYCATVYWYPRYGYWGQGTQVTVSS | low polyreactivity |
| QVQLVESGGGLVQAGGSLRLSCAASGGIFQENAMGWYRPAPGKERELVATITRSTGSTYYADSVKGRFTISRDNAKNTVYLQMNSLKPEDTAVYYCAARRRSQYYRYAYKYDYWGQGTQVTVSS | high polyreactivity |
| QVQLVESGGGLVQAGGSLRLSCAASGGIFQENAMGWYRQAPGKERELVATITRSTGSTYYADSVKGRFTISRDNAKNTVYLQMNSLKPEDTAVYYCAARRRSQYYRYAYKYDYWGQGTQVTVSS | high polyreactivity |
| QVQLVESGGGLVQAGGSLRLSCAASGGIFQGNVMGWYRQAPGKERELVASIRRGGSTNYADSVKGRFTISRDNAKNTVYLQMNSLKPEDTAVYYCSARKWVGYHVWPLREYNYWGQGTQVTVSS | low polyreactivity |
| QVQLVESGGGLVQAGGSLRLSCAASGGIFRFNAMGWYRQAPGKERELVAGISSTYYADSVKGRFTISRDNAKNTVYLQMNSLKPEDTAVYYCAAAGPEEHGYTYPGNNQMEYWGQGTQVTVSS | low polyreactivity |
| QVQLVESGGGLVQAGGSLRLSCAASGGIFRGYAMGCYRQAPGKERELVATITFSGTSTYYADSVKGRFTISRDNAKNTVYLQMNSLKPEDTAVYYCNADWWFKYDYWGQGTQVTVSS | low polyreactivity |
| QVQLVESGGGLVQAGGSLRLSCAASGGIFRGYAMGWYRQAPGKERELVATITFSGTSTNYADSVKGRFTISRDNAKNTVYFQMNRLKPEDTAVYYFAAGPVFGGGGYDYWGKGTQVTVSS | low polyreactivity |
| QVQLVESGGGLVQAGGSLRLSCAASGGIFRYYAMGWSRQAPGKEMELVAAITRGGRTSYADSVKGRFTISRDNAKNSVYLQMNSLKPEDTAVYYCNAKRPYQEHNSYGYWGQGTLVTVSS | high polyreactivity |
| QVQLVESGGGLVQAGGSLRLSCAASGGIFSRYAIGWYRQAPGKEREFVAAISFSGASTYYADSVKGRFTISRDNAKNTVYLQMNSLKPEDTAVYYCAADRVWPYYQYDYWGQGTQVTVSS | low polyreactivity |

| Sequence | polyreactivity (PSR sort gate) |
| --- | --- |
| QVQLVESGGGLVQAGGSLRLSCAASGGIFSSYAMGWYRPAPGKERELVAAISSSSGSTYYADSVKGRFTISRDNAKNTVYLQMNSLKPEDTGVYYCAADSGHPDWYYYCGQGTQVTVSS | high polyreactivity |
| QVQLVESGGGLVQAGGSLRLSCAASGGIFSTNGMGWYRQAPGKERELVATISYGGGSTSYADSVKGRFTISRDNAKNTVYLHMNSLKPEDTAVYYCAADSFGYNSWYNYDYWGQGSQVTVSS | low polyreactivity |
| QVQLVESGGGLVQAGGSLRLSCAASGGIFSWYAMGWYRQAPGKERELVAAISWSGSRTYYADSVKGRFTISRDNAKNTVYLQMNCLKPEDTAVYYCAADYIFRRYPVGGIYDYDYWGQGTQVTVSS | high polyreactivity |
| QVQLVESGGGLVQAGGSLRLSCAASGGIFSWYDMGWYREAPGKERELVAAISWSGGSTYYADSVKGRFTISRDNAKHTVYLQMNSLKPEDTAVYYCAAYTADDYDYWGQGTQVTVSS | high polyreactivity |
| QVQLVESGGGLVQAGGSLRLSCAASGGIFSYNAMGWYRQAPGKERELVAAITSSGSTYYADSVKGRFTISRDNAKNTVYLQMNSLKPEDTAVYYCNAVKRNSWIRGYWGQGTQVTVSS | low polyreactivity |
| QVQLVESGGGLVQAGGSLRLSCAASGGIFTQYVMGWYRQAPGKERELVAAINWSGGSTTYAYSVKGRFTISRDNAKNTVYLQMNSLKPEVTAVYYCAAYSYREFYYWGQGTQVTVSS | high polyreactivity |
| QVQLVESGGGLVQAGGSLRLSCAASGGIFVANAMGWYRQAPGKERELVAAISRSGGSTYYADSVKGRFTISRDNAKNTVYLQMNSLKPEDTAVYYCAAKSRRQYTVGLTSDYWGQGTQVTVSS | high polyreactivity |
| QVQLVESGGGLVQAGGSLRLSCAASGGIFVDNAMGWYRQAPGKERELVATITSTGSTNYADSVKGRFTISRDNAKNTVYLQMNSLKPEDTAVYYCNADGILQDYDYWGQGTQVTVSS | low polyreactivity |
| QVQLVESGGGLVQAGGSLRLSCAASGGIFVFYAMGWYRQAPGKERELVAAIRYGGSSTYYADSVKGRFTISRDNAKNTVYLQMNSLKPEDTAVYYCAAEHYSVYDPIGDYWGQGTQVTVSS | low polyreactivity |
| QVQLVESGGGLVQAGGSLRLSCAASGGIFVPNAMGWNRQAPGQEREFVARISFSGVSTYYADSVKGRFTISRDNAKNSVYLQLNSLKPEDTAVYYCACDKRARLGAMGYWGQGTQVTVSS | low polyreactivity |
| QVQLVESGGGLVQAGGSLRLSCAASGGIFVSYAMGLYRQAPGKERELVARINSVDGTNYADSVKGRFTISRDNAKNTVYLQMNSLKPEDTAVYYCAVRSPVLASDYGYYFLRDYWGQGTQVTVSS | low polyreactivity |
| QVQLVESGGGLVQAGGSLRLSCAASGGIFVYNMGWYRQAPGKERELVAAISVSGGSTYYADSVKGRFTISRDNAKNTVYLQMNSLKPEDTAVYYCAASRPPYRDDYWGQGSQVTVSS | high polyreactivity |
| QVQLVESGGGLVQAGGSLRLSCAASGGIFVYYAMGWYRQAPGKERELVAAISSGGTTNYADSVKGRFTISRDNAKNTVYLQMNSLKPEDTAVYYCAIYVSWPLYYYWGQGTQVTVSS | low polyreactivity |
| QVQLVESGGGLVQAGGSLRLSCAASGGIFWHYTMGWYRQAPGKERELVAAITRRGGSTYYADSVKGRFTISRDNAKNTVYLQMNSLKPEDTSVYYGAAVFEWTSRGSYYRYYYWGQGTQVTVSS | low polyreactivity |
| QVQLVESGGGLVQAGGSLRLSCAASGGIFWRYAMGWYRPAPGKERELVAAISSRGGSTYYADSVKGRFTISRDNAKNTVYLQMNSLKPEDTAVYYCAADRRYAESGYYWGQGTQVTVSS | high polyreactivity |
| QVQLVESGGGLVQAGGSLRLSCAASGGIFWTYAMGWYRQEPGKERELVAAISYSDGITYYADSGKGRFTISRDNAKNTVYFQMYSLKPEDTAVYYCAADPELAVPMYYWGQGTQVTVSS | low polyreactivity |

From the nanobody polyreactivity screen of Harvey et al. (2022)
